Results from patent US20090300780A1 (AbbVie / Abbott, published 2009).

Target: T1, murine NGF purified from submandibular glands (murine, UniProt P01139 122-239, limits assumed)
T1 construct: Native protein purified from tissue; also called NGF neurotrophin
Test: ELISA, murine NGF coated at 10 ug/ml, COS supernatants with IgG1, detection by anti-human Cgamma, OD450
Procedure: For immobilization on plastic, 96 well Maxi sorb plates were incubated at 4° C. overnight with a solution containing the respective ligands of the two antibodies (the purified recombinant immunoadhesin TrkA Camel and the murine NGF purified from submandibular glands) at a concentration of 10 μg/ml in 0.1M pH 9.6 sodium carbonate buffer.
After one hour of blocking with PBS containing 3% milk (MPBS) at ambient temperature, concentrated supernatants were incubated with serial dilutions (1:2, 1.20; 1:200) and in parallel also with the supernatant of non transfected COS cells (negative control).

T1 sequence (P01139 122-239 limits assumed): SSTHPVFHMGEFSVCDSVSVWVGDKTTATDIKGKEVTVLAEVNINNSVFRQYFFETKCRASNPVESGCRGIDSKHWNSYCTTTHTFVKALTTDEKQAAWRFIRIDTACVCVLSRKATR

B1: alpha D11 humanized antibody (Hum alpha D11), IgG1 form (antibody, V domains shown)
VH: EVQLVESGGGLVQPGGSLRLSCAASGFSLTNNNVNWVRQAPGKGLEWVGGVWAGGATDYNSALKSRFTISRDNSKNTAYLQMNSLRAEDTAVYYCARDGGYSSSTLYAMDAWGQGTLVTVSS
VL: DIQMTQSPSSLSASVGDRVTITCRASEDIYNALAWYQQKPGKAPKLLIYNTDTLHTGVPSRFSGSGSGTDYTLTISSLQPEDFATYFCQHYFHYPRTFGQGTKVEIK
notes: also called Hum αD11; Hum alpha D11 VH / Hum alpha D11Vk
Question: Does B1 bind?
Answer: binds
